Test: soluble on expression in E. coli; label from the status in PepcDB or PDB records

Sequence | soluble on expression in E. coli
SPSTNRKYPPLPVDKLEEEINRRMADDNKLFREEFNALPACPIQATCEAASKEENKEKNRYVNILPYDHSRVHLTPVEGVPDSDYINASFINGYQEKNKFIAAQGPKEETVNDFWRMIWEQNTATIVMVTNLKERKECKCAQYWPDQGCWTYGNVRVSVEDVTVLVDYTVRKFCIQQVGDVTNRKPQRLITQFHFTSWPDFGVPFTPIGMLKFLKKVKACNPQYAGAIVVHCSAGVGRTGTFVVIDAMLDMMHSERKVDVYGFVSRIRAQRCQMVQTDMQYVFIYQALLEHYLYGDTELEVT | soluble
SQQVDKIKASYPLFLDQDYKDMLAKKRDGFEEKYPQDKIDEVFQWTTTKEYQELNFQREALTVNPAKACQPLGAVLCALGFEKTMPYVHGSQGCVAYFRSYFNRHFREPVSCVSDSMTEDAAVFGGQQNMKDGLQNCKATYKPDMIAVSTTCMAEVIGDDLNAFINNSKKEGFIPDEFPVPFAHTPSFVGSHVTGWDNMFEGIARYFTLKSMDDKVVGSNKKINIVPGFETYLGNFRVIKRMLSEMGVGYSLLSDPEEVLDTPADGQFRMYAGGTTQEEMKDAPNALNTVLLQPWHLEKTKKFVEGTWKHEVPKLNIPMGLDWTDEFLMKVSEISGQPIPASLTKERGRLVDMMTDSHTWLHGKRFALWGDPDFVMGLVKFLLELGCEPVHILCHNGNKRWKKAVDAILAASPYGKNATVYIGKDLWHLRSLVFTDKPDFMIGNSYGKFIQRDTLHKGKEFEVPLIRIGFPIFDRHHLHRSTTLGYEGAMQILTTLVNSILERLDEETRGMQATDYNHDLVR | soluble
SRDSAFRERLLRLAPKYPLVLAVSGGGDSVALALLVKEAGRQAVVAHLDHGLRPESPLDQAFVRALAERLGFPFFTERVEVARIAQARGENLEAVAREVRYAFLHRVAREVGARAILTAHTLDDQAETVLLQLLQGTARATGIREREGIVVRPLLAHTREELRAYLRARGEAWREDPTNQDPALDRNFLRLFVFPLLEERFPAAKRALARFAEARAEEEGVLERQAEARLLPDPRFFVPAFRAAPLLEAPLAVRRRALRRLLEKLGLRPEARLVLLLEEALRGRPQTLPGGVLARRKGGTLFLLPPRPRLPLPPGFRRPAPGDYLERPSGRKRLVDFLAEKGVPRELKPLWPVRAEGNRVVEVLGLYPPPPEEAHMAEALAEAASAFREGEVPVGAVLVLPGRVLRAHNRVEGLRDPTAHAEMLLLREAGPEARGGRLYVTLEPCLMCHHALAQAGVEVVYGAENLKEGALTRFGLPTRARGGVRERECAKLLRDFFARLREGCRSG | soluble
SRMEQVIVKQGKDALTADAVFVSANPLSDSLLKSTEQLERSVMTRFSTMAFSDNGMQLISVRGVDESYPLMGELVLDGNESGRVKPNQLWLDERIMAQLEVTKGDNVTIGDADFTVSGAVLMEPGLSFNPFQQMPAAYIHQSDVEKTGAIQVGSRVQYRLFLKADNAALKQLQDKTELSPSDRWRTQDTASRSNEVFDRTTQ | not soluble
SRMMVIKNNSEETKSREYIVIGQVFFASSDKFIASFDFKEVIECVTIDLSAAHFWDITSASALDKVVVKFRREGTQVELIGMNQATKTIVDKFGVHDKPEEVEKLLAG | not soluble
SSEADQALVGPKADEPSPPAEEKDEGGGKEAAADAAPGPSASFRLMVTRREPAVKLQYAVSGLEPLSWSEDHRVSVSTARSVAVLELICDVHNPGQDLVIHRTSVPAPLNSCLLKVGSKTEVAECKEKFASSKDPTISQTFMLDRMFNPEGKALPPMRGFKYTSWSPMGCDANGRCLLAALTMDNRLTVQVNLNRLQWVQLVDLTEIYGDRLYETSYRLSKNEAPEGNLGDFAEFQRRHSMQTPVRMEWSSICTTQQVKHNNECRDVSS | soluble
SSEVLDGFDKVDKSLASSIDGSDKRNNLVLSELNTAYRTNPEKVKVWYERSLVLQKEADSLCTFIDDLKLAIARESDGKDAKVNDIRRKDNLDASSVIMLNPINGKGSTLRKEVDKFRELVATLMTDKAKLKLIEQALNTESGTKGKSWESSLFENMPTVAAITLLTKLQSDVRYAQGEVLADLVKSVDVGDYRVNSITAQVIPQSQIVMSGDTYKANIVLSSVDTTQRPDVFVNGKLLSPENMGLFTATAGAPGTYPVKGYIEMMGNDGVKIRRDFESEYFVTE | not soluble
SSFLGGLFGPACEIDVILNDAESRKTAELKTEEGKLEKHYLFYDGESVSGKVNINVKQTSKRLEHQGIRIEFVGQIELFSDKSNTHEFVNLVKELALPGELTQNRSYDFEFMQVEKPYESYVGANVRLRYFLKVTIVRRLSDLVKEYDLIVHQLATYPDVNNSIKMEVGIEDCLHIEFEYNKSKYHLKDVIVGKIYFLLVRIKIQHMELQLIKKEMTGIGPSTTTETETVAKYEIMEGAPVKGESIPIRLFLAGYDLTPTMRDVNKKFSVRYFLNLVLVDEEDRRYFKQQEIVLWRKAPEKMRKRNFHQRYESPEPRPSLSAEQPEM | soluble
SSLCERAASGSALLWPRVLLFGDSITQFSFQQGGWGSLLADRLVRKCDVLNRGFSGYNTRWAKIILPRLIRKGPGMENPVAVTIFFGANDSSLKDENPKQHVPLDEYSANLRDMVQYLRSVDVPRERVILITPPPLCEAAWEKECVLKGCKLNRLNSVVGEYANACLQVARDCGTDVLDLWTLMQKDSQDFSSYLSDGLHLSPMGNEFLFLNLCPLLDKKVSSLPWLLPYWKDVEEAKPELSLLGDGDY | soluble
SSLLDGLASSPRAPLQSSKARMKKLPKKSQNEKYRLKYLRLRKAAKATVFENAAICDEIARLEEKFLKAKEERRYLLKKLLQLQALTEGEVQAAAPSHSSSLPLTYGVASSVGTIQGAGPISGPSTGAEEPFGKKTKKEKKEKGKENNKLEVLKKTCKKKKMAGGARKLVQPIALDPSGRPVFPIGLGGLTVYSLGEIITDRPGFHDESAIYPVGYCSTRIYASMKCPDQKCLYTCQIKDGGVQPQFEIVPEDDPQNAIVSSSADACHAELLRTISTTMGKLMPNLLPAGADFFGFSHPAIHNLIQSCPGARKCINYQWVKFDVCKPGDGQLPEGLPENDAAMSFEAFQRQIFDEDQNDPLLPGSLDLPELQPAAFVSSYQPMYLTHEPLVDTHLQHLKSPSQGSPIQSSD | soluble
SSLPLNAIEPCVICQGRPKNGCIVHGKTGHLMACFTCAKKLKKRNKPCPVCRQPIQMIVLTYFP | soluble
SSSIKVECVIKEKNEVGESPVWEEKDSSLLYVDITGQKVSRWSSLTKQIESMNTEKLVGCVVPRQAGGYVIAEGTRFAFVDWVKRSITAVAEVNEKPNTRFNDGKVDPAGRFFAGTMSMDMKPDVVDAALYNLQPDHSVVRHFDQVHLSNGLDWSLDHRVFYYIDSLAFMVEAFDYDIQTGGLSNRRTVYKMEKDEGIPDGMCIDTEGKLWVACFNGGRVLRIDPQTGKRLQTVKLPAERITSCCFGGKDYSDLYITSAYIGMDAEALAKQPEAGCTFKVTGLGVKGIPPYSYTG | soluble
STNNNPAPLLGFRIAHLLEQEPDTKDLTINVKTEILKHEFGPIKSSFSFSPHKFFEEDVKKQELYFFLIAVGIEEDDAKLMMTDMIFYVLGNIDELRGVLTLLLKVQFPSFEPIEEH | soluble
STRERLLSALEDLEVLSRELIEMLAISRNQKLLQAGEENQVLELLIHRDGEFQELMKLALNQGKIHHEMQVLEKEVEKRDSDIQQLQKQLKEAEQILATAVYQAKEKLKSIEKARKGAISSEEIIKYAHRISASNAVCAPLTWVPGDPRRPYPTDLEMRSGLLG | not soluble
STRFPGVAIYLVEPRMGRSRRAFLTGLARSKGFRVLDACSSEATHVVMEETSAEEAVSWQERRMAAAPPGCTPPALLDISWLTESLGAGQPVPVECRHRLEVAGPRKGPLSPAWMPAYAC | soluble
STSGTSVINDKVLQYETFISEVLRRDLQKVLEQRDAVYEKIAQYLQLKNTIQSIQGSGSKELKTDVDLGCNFYVQAHVPDASRIYVAVGYGFFVEFTHVEALKFIEKKTNQLTEYTEVLTKDAAKIKANIRMVLEGLRELQGLKDLPEDRRREVF | soluble
STSPLSDLLNLDLSDTKKIIAEYIWIGGSGMDIRSKARTLPGPVSNPTKLPKWNYDGSSTDQAAGDDSEVILYPQAIFKDPFRKGNNILVMCDAYRPAGDPIPTNNRHKAVKIFDHPNVKAEEPWFGIEQGYTLLKKDVKWPLGWPLGGFPGPQGPYYCAVGADKAFGRDIVDAHYKACLYSGLSIGGANGEVMPGQWEFQISPTVGIGAGGQLWVARYILERITEICGVIVSFDPKPIQGDWNGAAAHTNFSTKSMRKDGGLDLIKEAIKKLEVKHKQHIAAYGEGNERRLTGKHETADINTFSWGVADRGASVRVGRDTEKEGKGYFEDRRPSSNMDPYLVTSMIAETTIL | soluble
SVCAAQNCQRPCKDKVDWVQCDGGCDEWFHQVCVGVSPEMAENEDYICINCA | soluble
SVCLFALQIPHDEAQLLALLQQVVQSHPSFKIEVRRRDKLFACNSSAFKKYLALQLWEKYQLKGKLVDPAITVHVEVTKEHFLIISES | not soluble
SVERIYQKKTQLEHILLRPDTYIGSVELVTQQMWVYDEDVGINYREVTFVPGLYKIFDEILVNAADNKQRDPKMSCIRVTIDPENNLISIWNNGKGIPVVEHKVEKMYVPALIFGQLLTSSNYDDDEKKVTGGRNGYGAKLCNIFSTKFTVETASREYKKMFKQTWMDNMGRAGEMELKPFNGEDYTCITFQPDLSKFKMQSLDKDIVALMVRRAYDIAGSTKDVKVFLNGNKLPVKGFRSYVDMYLKDKLDETGNSLKVIHEQVNHRWEVCLTMSEKGFQQISFVNSIATSKGGRHVDYVADQIVTKLVDVVKKKNKGGVAVKAHQVKNHMWIFVNALIENPTFDSQTKENMTLQPKSFGSTCQLSEKFIKAAIGCGIVESILNWVKFKAQVQLNKKCS | soluble
SVFYFTSSSVNSSAYTIYMGKDKYENEDLIKHGWPEDIWFHVDKLSSAHVYLRLHKGENIEDIPKEVLMDCAHLVKANSIQGCKMNNVNVVYTPWSNLKKTADMDVGQIGFHRQKDVKIVTVEKKVNEILNRLEKTKVERFPDLAAEKECRDREERNEKKAQIQEMKKREKEEMKKKREMDELRSYSSLMKVENMSSNQDGNDSDEFM | soluble
SVIGRIHSFESCGTVDGPGIRFITFFQGCLMRCLYCHNRDTWDTHGGKEVTVEDLMKEVVTYRHFMNASGGGVTASGGEAILQAEFVRDWFRACKKEGIHTCLDTNGFVRRYDPVIDELLEVTDLVMLDLKQMNDEIHQNLVGVSNHRTLEFAKYLANKNVKVWIRYVVVPGWSDDDDSAHRLGEFTRDMGNVEKIELLPYHELGKHKWVAMGEEYKLDGVKPPKKETMERVKGILEQYGHKVMF | soluble
SVTASRYYPQLMSLVGNVLRFLPAFVRMKQLISEHYVGAVMICDARIYSGSLLSPSYGWICDELMGGGGLHTMGTYIVDLLTHLTGRRAEKVHGLLKTFVRQNAAIRGIRHVTSDDFCFFQMLMGGGVCSTVTLNFNMPGAFVHEVMVVGSAGRLVARGADLYGQKNSATQEELLLRDSLAVGAGLPEQGPQDVPLLYLKGMVYMVQALRQSFQGQGDRRTWDRTPVSMAASFEDGLYMQSVVDAIKRSSRSGEWEAVEVLTEEPDTNQNLCEALQRNNL | soluble
SYEQLKGEWNRKSPNLSKCGEELGRLKLVLLELNFLPTTGTKLTKQQLILARDILEIGAQWSILRKDIPSFERYMAQLKCYYFDYKEQLPESAYMHQLLGLNLLFLLSQNRVAEFHTELERLPAKDIQTNVYIKHPVSLEQYLMEGSYNKVFLAKGNIPAESYTFFIDILLDTIRDEIAGCIEKAYEKILFTEATRILFFNTPKKMTDYAKKRGWVLGPNNYYSFASQQQKPEDTTIPSTELAKQVIEYARQLEMIV | soluble

From the DeepSol protein solubility set
